T1: human IGFBP4 (human, UniProt P22692 22-258)
T1 construct: Bought protein
T1 sequence (looked up): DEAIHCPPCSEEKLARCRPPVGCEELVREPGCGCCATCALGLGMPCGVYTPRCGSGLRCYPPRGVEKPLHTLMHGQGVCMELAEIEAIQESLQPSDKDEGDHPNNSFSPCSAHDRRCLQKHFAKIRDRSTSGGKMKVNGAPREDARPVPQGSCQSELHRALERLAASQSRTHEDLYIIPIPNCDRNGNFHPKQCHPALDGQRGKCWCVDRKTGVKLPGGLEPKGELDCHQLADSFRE

T2: human IGFBP6 (human, UniProt P24592 28-240, limits assumed)
T2 construct: Bought protein
T2 sequence (looked up): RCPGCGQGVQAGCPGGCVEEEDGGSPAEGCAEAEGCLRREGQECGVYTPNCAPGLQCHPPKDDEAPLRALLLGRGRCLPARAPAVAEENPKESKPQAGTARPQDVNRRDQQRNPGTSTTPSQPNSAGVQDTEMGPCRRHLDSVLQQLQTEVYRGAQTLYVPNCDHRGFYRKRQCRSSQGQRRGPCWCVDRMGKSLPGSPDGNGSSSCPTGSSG

T3: human IGFBP1 (human, UniProt P08833 26-259)
T3 construct: Bought protein
T3 sequence (looked up): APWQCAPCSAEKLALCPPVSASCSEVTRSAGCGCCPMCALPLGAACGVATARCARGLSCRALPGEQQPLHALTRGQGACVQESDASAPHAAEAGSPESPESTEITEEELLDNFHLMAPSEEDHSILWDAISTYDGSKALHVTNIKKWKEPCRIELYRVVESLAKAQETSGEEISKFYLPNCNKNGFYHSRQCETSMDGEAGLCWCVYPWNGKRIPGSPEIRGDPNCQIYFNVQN

T4: human IGFBP2 (human, UniProt P18065 37-325, limits assumed)
T4 construct: Bought protein
T4 sequence (looked up): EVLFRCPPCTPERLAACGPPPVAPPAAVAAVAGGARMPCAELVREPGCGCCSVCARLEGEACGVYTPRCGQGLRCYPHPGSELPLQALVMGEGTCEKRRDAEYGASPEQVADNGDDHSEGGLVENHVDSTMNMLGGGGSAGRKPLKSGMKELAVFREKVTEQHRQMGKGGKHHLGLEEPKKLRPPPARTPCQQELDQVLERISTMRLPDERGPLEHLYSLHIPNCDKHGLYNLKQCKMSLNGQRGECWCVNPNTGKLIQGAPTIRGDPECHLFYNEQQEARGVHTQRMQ


What was measured:
human IGFBP4 = molecular target: T1, human IGFBP4; experiment: ELISA, scFv, secondary screening
Protocol: (§1) At the end of the discovery process, each selection output was screened for antigen-specific antibodies and the binding characteristics of monoclonal antibody clones was analysed. For this purpose, 3072 single colonies were used for scFv antibody production. […] 192 of those ELISA positive clones were selected for a secondary screening. For that purpose, a second batch of scFv were produced and tested on a broader panel of antigens: Streptavidin+biotinylated human IGFBP5, Streptavidin+biotinylated murine IGFBP5, Streptavidin, BSA, Human IGFBP1, Human IGFBP2, Human IGFBP3, Human IGFBP4, Human IGFBP5 and Human IGFBP6. […] Binding to human IGFBP1, human IGFBP2, human IGFBP3, human IGFBP4 and human IGFBP6 was not detected. […] The scFv DNA sequence was amplified by PCR and cloned into YUMAB's mammalian scFv-Fc expression vector, resulting in a genetic fusion of the scFv with a human IgG4 Fc. Bacterial clones with a correctly cloned scFv gene were used for isolation of transfection grade DNA. The DNA was used for the transient transfection of HEK cells which produced and secreted the antibody into the culture medium. The antibodies were purified by affinity chromatography (Protein A) and re-buffered in PBS. The protein concentration was determined by UV/VIS spectrometry and purity was checked by Coomassie staining. 13 of the 15 antibodies could be successfully produced in the scFv-Fc format.

human IGFBP6 = molecular target: T2, human IGFBP6; experiment: ELISA, scFv, secondary screening
Protocol: as §1

human IGFBP5 [1] = molecular target: T5, human IGFBP5 (human, UniProt P24593 21-272); experiment: ELISA, scFv, secondary screening
T5 construct: Bought protein; in BLI it was in solution; also called hIGFBP-5
Protocol: as §1

human IGFBP1 = molecular target: T3, human IGFBP1; experiment: ELISA, scFv, secondary screening
Protocol: as §1

mouse IGFBP5 [2] = molecular target: T6, mouse IGFBP5 (mouse, UniProt Q07079 20-271); experiment: ELISA, scFv, secondary screening
T6 construct: Bought protein; in solution in BLI; also called mIGFBP-5; murine IGFBP5
Protocol: as §1

human IGFBP2 = molecular target: T4, human IGFBP2; experiment: ELISA, scFv, secondary screening
Protocol: as §1

human IGFBP3 = molecular target: T7, human IGFBP3 (human, UniProt P17936 28-291); experiment: ELISA, scFv, secondary screening
T7 construct: Bought protein
Protocol: as §1

human IGFBP5 [3] = molecular target: T5, human IGFBP5; experiment: BLI (Octet/BLItz), mAb captured via Fc on AHC biosensor, antigen in solution
Protocol: (§2) To assess the binding affinity in more detail, affinity measurements were performed using Biomolecular Interaction Analysis performed by an Octet platform (BLItz System), which is a Biolayer Interferometry (BLI) platform. To establish the assay, the target monoclonal antibody (mAb, 2 identical antigen binding moieties, 2 μg/ml in 1% BSA containing 0.05% Tween 20) was immobilized via Fc on the via AHC biosensor and the interaction with the antigen human IGFBP5 (R&D, cat n° 875-B5) and mouse IGFBP5 (R&D, cat n° 578-B5) at different concentration were measured.

mouse IGFBP5 [4] = molecular target: T6, mouse IGFBP5; experiment: as above
Protocol: as §2

T6 sequence (Q07079 20-271 limits assumed): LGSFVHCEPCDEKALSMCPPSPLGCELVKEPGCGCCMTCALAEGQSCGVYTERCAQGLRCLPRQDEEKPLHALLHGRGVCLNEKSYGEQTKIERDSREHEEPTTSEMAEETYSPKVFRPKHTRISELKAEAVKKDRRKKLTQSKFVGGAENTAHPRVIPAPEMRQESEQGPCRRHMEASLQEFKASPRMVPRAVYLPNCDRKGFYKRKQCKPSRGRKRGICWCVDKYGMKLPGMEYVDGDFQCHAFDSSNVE
T5 sequence (P24593 21-272 limits assumed): as the sequence (Q07079 20-271 limits assumed) above, with G87R, T90V, V116I, V157I, P159S, F183L, A245T counted along it
T7 sequence (P17936 28-291 limits assumed): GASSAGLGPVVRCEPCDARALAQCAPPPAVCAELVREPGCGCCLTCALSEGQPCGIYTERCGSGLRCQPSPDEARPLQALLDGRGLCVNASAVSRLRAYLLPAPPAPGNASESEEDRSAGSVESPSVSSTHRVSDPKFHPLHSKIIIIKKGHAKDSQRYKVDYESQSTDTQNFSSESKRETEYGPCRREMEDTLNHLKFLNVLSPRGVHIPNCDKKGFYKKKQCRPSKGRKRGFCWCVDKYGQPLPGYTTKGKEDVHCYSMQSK

| binding result (human IGFBP4) | binding result (human IGFBP6) | binding result (human IGFBP5 [1]) | binding result (human IGFBP1) | binding result (mouse IGFBP5 [2]) | binding result (human IGFBP2) | binding result (human IGFBP3) | Kd (human IGFBP5 [3]) | Kd (mouse IGFBP5 [4]) | Binder |
| --- | --- | --- | --- | --- | --- | --- | --- | --- | --- |
| no binding | no binding | binds | no binding | binds | no binding | no binding | – | – | A09 scFv (scFv, V domains shown) VH: QVQLVESGAEVKKPGASVKVSCKASGYTFTSYGISWVRQAPGQGLEWMGWISAYNGNTNYAQKLQGRVTMTTDTSTSTAYMELRSLRSDDTAVYYCAREWELLGGLDYWGQGTLVTVSS VL: QSALTQPASVSGSPGQSITISCTGTSSDVGGYNYVSWYQQHPGKAPKLMIYEVSNRPSGVSNRFSGSKSGNTASLTISGLQAEDEADYYCSSYTSSSTVVFGGGTKLTVL |
| – | – | – | – | – | – | – | 0.1 nM | 0.1 nM | B09 full length mAb (antibody, V domains shown, also called anti-IGFBP5 mAb B09) VH: QVQLVQSGAEVKKPGASVKVSCKASGYTFTSYGISWVRQAPGQGLEWMGWISAYNGNTNYAQKLQGRVTMTTDTSTSTAYMELRSLRSDDTAVYYCARDLAVGTHGDYWGQGTLVTVSS VL: QSALTQPASVSGSPGQSITISCTGTSSDVGGYNYVSWYQQHPGKAPKLMIYEVSNRPSGVSNRFSGSKSGNTASLTISGLQAEDEADYYCSSYTSSSTLEVVFGGGTKLTVL |
| no binding | no binding | binds | no binding | binds | no binding | no binding | – | – | G01 scFv (scFv, V domains shown, scFv as screened by ELISA) VH: QVQLVQSGAEVKKPGSSVKVSCKASGGTFSSYAISWVRQAPGQGLEWMGGIIPIFGTANYAQKFQGRVTITADESTSTAYMELSSLRSEDTAVYYCASITEGAFDYWGQGTLVTVSS VL: AIQLTQSPSTLSASVGDRVTITCRASRTVGSWLAWYQQKPGKAPKLLIYDASNLQSGVPSRFSGSGSGTEFTLTISSLQPDDLSTYYCQQYNSSPYTFGQGTKVEIK |

Source: patent publication US12715909 (ENTHERA S R L, dated 2026)
